Measurements as given in patent publication US20220251518A1 (published 2022).

Target: T1, Aβ1-42, monomer and/or protofibrils (form not told for the result) (human, UniProt P05067 672-713)
T1 construct: domain: amyloid beta (Aβ) 1-42 peptide; also called Aβ1-42 peptide or protofibrils; mixture of Aβ1-42 peptide (monomer) and protofibrils
Assay: BLI (Octet RED 96), antibody captured on anti-rat IgG probe; monomer or protofibrils not told

T1 sequence (P05067 672-713 limits assumed): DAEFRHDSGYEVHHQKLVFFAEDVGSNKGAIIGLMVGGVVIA

B1: monoclonal antibody 11G10 (antibody, V domains shown)
VH: EVQLQQSGAEIVKPGASVKLSCKASGYTFTSYWMHWVKQRPGQGLEWIGEIDPSDSYTNYNQKFKGKATLTVDKSSSTAYMQLRSLTSEDSAVYYCARSFHGNLFVYWGQGTLVTVSA
VL: QIVLTQSPAIMSASPGEKVTITCSASSSVSYMHWFQQKPGTSPKLWIYSTSNLATGVPARFSGSGSGTSYSLTISRMEAEDAATYYCQQRSSYPLTFGAGTKLEIK
Kd: 1 pM
